Measurements: the supplement of paper PMC9732359
± gives the uncertainty stated by the source.

Assay: protein stability index of a GFP-peptide fusion (yeast GPS) (PSI 1-4); higher = more stable; sorted into four equal gates, so the index is relative within each strain
Procedure, shortened: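 Sequencing reads from sorted gates were used to score each peptide. The library consisted of tiled 17-residue yeast protein peptides fused downstream of GFP on a Cherry-expressing plasmid, pooled and carried in yeast. Mid-log cultures in leucine-free medium were split into four equal gates by GFP/Cherry ratio, and each gate's plasmids were PCR-amplified and Illumina-sequenced. The protein stability index adds up, over all gates, the read frequency multiplied by the gate number.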

| Sequence | protein stability index (pdr5∆) | protein stability index (san1∆) | protein stability index (ubr1∆) | protein stability index (doa10∆) |
| --- | --- | --- | --- | --- |
| ELTIIKNPRVTKEYLVQ [CSN9] | 3 ± 0.3 | 3.15 ± 0.11 | 3.35 ± 0.091 | – |
| ERDTFSDFTFPEYYSTA [DIS3] | 1.73 ± 0.082 | 2.15 ± 0.17 | 1.64 ± 0.14 | 1.66 ± 0.082 |
| ILGKNFDSVIVENLTVA [SMC1] | 2.15 ± 0.083 | 2.11 ± 0.075 | 2.19 ± 0.054 | 2.48 ± 0.08 |
| PHGISVFLSNLVETCLN [BRR2] | 1.57 ± 0.035 | 1.48 ± 0.07 | 1.61 ± 0.03 | 1.39 ± 0.043 |
| KDTNDHVDKRTKIDQEA [ISW2] | 2.62 ± 0.048 | 2.77 ± 0.051 | 2.57 ± 0.036 | 2.6 ± 0.047 |
| RIFAIAFTRKQANQVKR [RPS1A] | 1.66 ± 0.019 | 1.99 ± 0.031 | 1.98 ± 0.02 | 1.59 ± 0.018 |
| DIEEGPITSKSWEEGTR [MCD1] | 2.92 ± 0.19 | 2.99 ± 0.15 | – | – |
| SLYTNTSRKALEEVSLK [RPL3] | 2.38 ± 0.13 | 2.33 ± 0.14 | 1.83 ± 0.19 | – |
| EKFSPKSFISKLLGIGD [SRP54] | 3.31 ± 0.15 | 2.68 ± 0.2 | 3.21 ± 0.17 | 3.49 ± 0.14 |
| TFEFINIAFDAHMSIGC [YML031W/NDC1] | 1.38 ± 0.067 | 1.19 ± 0.13 | 1.33 ± 0.062 | 1.2 ± 0.074 |
| ASINTSATVKTSDLLGS [ECM29] | 2.96 ± 0.21 | – | 3.25 ± 0.21 | 3.24 ± 0.24 |
| TVLCTPTGGKAKLSEGT [RPS27B] | 3.18 ± 0.079 | 3.15 ± 0.045 | 3.15 ± 0.1 | 3.25 ± 0.11 |
| MFDAFVSFYFEDGTIES [SIN4] | 2.76 ± 0.062 | 2.52 ± 0.059 | 3.07 ± 0.062 | 2.33 ± 0.078 |
| VHDKILEDLVFPTEIVG [RPS7A] | 3.15 ± 0.076 | 3.27 ± 0.061 | 3.31 ± 0.1 | 3.3 ± 0.13 |
| QHYLDTATAPRLFDKLK [QCR6] | 3.04 ± 0.045 | 2.84 ± 0.061 | 2.76 ± 0.091 | 2.96 ± 0.055 |
| ARYNWICNPVHKHREAR [RPL15B] | 2.68 ± 0.088 | 2.36 ± 0.11 | 3.04 ± 0.095 | 2.94 ± 0.083 |
| LSQLCAVPLQIVSPQSN [RPO21] | 1.91 ± 0.058 | 1.9 ± 0.084 | 1.87 ± 0.04 | 1.88 ± 0.063 |
| ENANAANNGAAFSPLTT [MED2] | 2.92 ± 0.1 | 2.88 ± 0.1 | 2.79 ± 0.057 | 3.1 ± 0.11 |
| SSDELKVIEEQLKHTKL [SMC4] | 3.3 ± 0.077 | 3.04 ± 0.067 | 3.25 ± 0.058 | 3.27 ± 0.061 |
| EDSSILQSIVNEISRNG [PCI8] | 2.96 ± 0.1 | 3 ± 0.054 | 3.41 ± 0.09 | 3.13 ± 0.13 |
| GITHFRAGMTHEDEKLI [PRP8] | 2.47 ± 0.065 | 3.1 ± 0.059 | 3.14 ± 0.044 | 2.62 ± 0.079 |
| LQELIVNGPNVHPGANY [RPO31] | 2.99 ± 0.092 | 2.99 ± 0.072 | 2.45 ± 0.047 | 2.83 ± 0.071 |
| LPFMQNAGPNSNIPNLL [YDL088C/ASM4] | 2.18 ± 0.04 | 2.58 ± 0.039 | 2.52 ± 0.029 | 2.46 ± 0.037 |
| VKVQPEGKYIVDVAKDI [RPT6] | 3.14 ± 0.17 | 3.29 ± 0.038 | 3.16 ± 0.11 | 3.35 ± 0.12 |
| FAGVASMNVTLGVPRIK [RPO31] | 2.78 ± 0.086 | 2.94 ± 0.079 | 2.76 ± 0.064 | 2.82 ± 0.095 |

| Sequence | protein stability index (pdr5∆) | protein stability index (san1∆) | protein stability index (ubr1∆) | protein stability index (doa10∆) |
| --- | --- | --- | --- | --- |
| TVPNINFSGLNGGITNT [YOR098C/NUP1] | 3.35 ± 0.22 | 3.74 ± 0.11 | 3.67 ± 0.12 | 3.45 ± 0.15 |
| GNIVKEFENKFQNSYKP [YMR129W/POM152] | 3.14 ± 0.13 | 3.37 ± 0.053 | 3.39 ± 0.098 | 3.35 ± 0.081 |
| AKIYPGRGTLFVRGDSK [RPL24A] | 1.77 ± 0.12 | 1.97 ± 0.15 | 2.04 ± 0.085 | 1.1 ± 0.075 |
| VLESHWKQDLTKEEAIK [PUP1] | 3.15 ± 0.13 | 3.32 ± 0.12 | 3.08 ± 0.15 | 2.71 ± 0.18 |
| HQSELIIKQTVHPIPDV [YMR129W/POM152] | 2.86 ± 0.055 | 2.55 ± 0.071 | 2.27 ± 0.061 | 2.74 ± 0.066 |
| PNTTKTKLRAFVYNKVN [YGR119C/NUP57] | – | – | – | 2.47 ± 0.21 |
| FDRLVAGQIPTGWNAKT [FAS2] | – | – | – | 2.15 ± 0.18 |
| NLRHERNSLETKLTTCK [YIL149C/MLP2] | 2.79 ± 0.14 | 2.93 ± 0.12 | 3.04 ± 0.077 | 2.83 ± 0.13 |
| NRSNDALIKFMEYHISN [FAS2] | 2.55 ± 0.078 | 2.96 ± 0.084 | 2.45 ± 0.057 | 2.93 ± 0.074 |
| LYSVKFAPAHLGLKLAC [YGL100W/SEH1] | 1.98 ± 0.049 | 2.72 ± 0.072 | 2.79 ± 0.046 | 2.73 ± 0.074 |
| ILEEKTDLHLPKKEYDD [NSL1] | 2.39 ± 0.12 | 2.21 ± 0.12 | 2.66 ± 0.061 | 1.76 ± 0.057 |
| TKEYLVQNLRSWETKLK [CSN9] | 3.33 ± 0.21 | 3.1 ± 0.092 | 2.93 ± 0.13 | 2.96 ± 0.099 |
| VPHYNRLDSYKVIEQPI [RPL25] | 2.21 ± 0.11 | 2.02 ± 0.11 | 2.21 ± 0.11 | 1.8 ± 0.095 |
| AKSTVETFISSMTATAD [RIP1] | 2.13 ± 0.077 | 2.93 ± 0.061 | 1.48 ± 0.05 | 1.89 ± 0.073 |
| YNTRKNAVTAAAANNNI [GAL11] | 2.52 ± 0.044 | 2.67 ± 0.05 | 2.46 ± 0.029 | 2.19 ± 0.046 |
| TVVTVVSTAKFSGKYLK [RPL22A] | 3.13 ± 0.083 | 3.38 ± 0.17 | 2.96 ± 0.065 | 3.18 ± 0.12 |
| MDFLNSMENTPKVPVSA [GAL11] | 2.45 ± 0.11 | 2.1 ± 0.13 | 2.37 ± 0.065 | 2.42 ± 0.094 |
| KCQTCQEGMNECPGHFG [RPO21] | 3.23 ± 0.094 | 3.51 ± 0.086 | 3.26 ± 0.091 | 3.34 ± 0.17 |
| VPQTEEARAEAINLMGV [RPO31] | 2.97 ± 0.1 | 3 ± 0.085 | 3.12 ± 0.052 | 3.15 ± 0.11 |
| EFFHLQHYLDTATAPRL [QCR6] | 3.03 ± 0.043 | 2.72 ± 0.058 | 3 ± 0.069 | 2.98 ± 0.057 |
| HISKIIGLDTQQVEGKL [RPN6] | 3.43 ± 0.093 | 2.9 ± 0.065 | 2.86 ± 0.059 | 2.95 ± 0.071 |
| PLLRKVVDRESDIPKTT [PRE4] | 2.46 ± 0.091 | 1.87 ± 0.13 | 2.79 ± 0.067 | 2.54 ± 0.11 |
| TEGEPKKKRGFLGLFGR [SRP68] | 3.46 ± 0.093 | 2.92 ± 0.068 | 3.01 ± 0.06 | 3.17 ± 0.094 |
| KKWKKYWQYKAGIPIGL [SWP82] | 2.25 ± 0.081 | 2.61 ± 0.11 | 2.01 ± 0.04 | 1.94 ± 0.067 |
| AMFFGNYGSSLQWHAMI [AAR2] | 1.8 ± 0.085 | 1.44 ± 0.12 | 2.15 ± 0.071 | 2.41 ± 0.093 |

| Sequence | protein stability index (pdr5∆) | protein stability index (san1∆) | protein stability index (ubr1∆) | protein stability index (doa10∆) |
| --- | --- | --- | --- | --- |
| WKFKSLIEILRLRALQL [RRI2] | 1.21 ± 0.075 | 1.14 ± 0.13 | 1.08 ± 0.075 | 1.45 ± 0.093 |
| RVRAESLHSNSFSLTVS [YJL039C/NUP192] | 1.76 ± 0.072 | 1.43 ± 0.17 | 1.75 ± 0.064 | 1.74 ± 0.066 |
| VDVQAPTDDKTLKPTFS [YOR098C/NUP1] | 3.23 ± 0.18 | 3.16 ± 0.19 | 3.27 ± 0.076 | 3.05 ± 0.15 |
| MKSLLTELSNKETTIEK [YIL149C/MLP2] | 3 ± 0.12 | 3.41 ± 0.07 | 3.25 ± 0.062 | 3.23 ± 0.13 |
| DISAAIVHSSDGHLQFL [DLS1] | 2.85 ± 0.068 | 3.01 ± 0.048 | 2.8 ± 0.078 | 2.92 ± 0.056 |
| SYNWGAKAKRRHTTGTG [RPL37A] | 3.15 ± 0.055 | 3.13 ± 0.078 | 3.34 ± 0.043 | 3.37 ± 0.097 |
| TFSGALGKQSSSLLSRL [FAS2] | 3.23 ± 0.087 | 3.22 ± 0.065 | 2.93 ± 0.073 | 3.33 ± 0.097 |
| KSLESQRYVKSVKSVKF [RPC34] | 1.61 ± 0.058 | 2.16 ± 0.098 | 1.55 ± 0.084 | 1.26 ± 0.081 |
| DSLSGAVIAAIMQEAGL [RPT3] | 1.14 ± 0.18 | – | – | – |
| YTEQFQHYKNNSISSQP [SSN2] | 2.95 ± 0.11 | 3.09 ± 0.15 | 2.98 ± 0.1 | 2.76 ± 0.14 |
| PALIRPGRIDRKILFEN [RPT2] | 2.21 ± 0.16 | 2.12 ± 0.2 | 2.58 ± 0.17 | – |
| LATNSLVEEFMLLANIS [DIS3] | 1.7 ± 0.099 | 1.74 ± 0.16 | 2.37 ± 0.071 | 1.39 ± 0.095 |
| VRLRSNVIKTGIRIISL [RPN3] | 2.35 ± 0.14 | 2.22 ± 0.23 | 2.44 ± 0.065 | 2.27 ± 0.21 |
| IIHFHSHPEKRMIPPRM [SSN3] | 2.95 ± 0.067 | 3.06 ± 0.065 | 3.13 ± 0.049 | 3.09 ± 0.07 |
| ERVRNFAVIYLCDIDEV [DIB1] | 1.22 ± 0.093 | 1.04 ± 0.26 | 1.36 ± 0.088 | 1.26 ± 0.13 |
| STYKHDRGIANIRNNIE [SRB4] | 3.27 ± 0.14 | 2.95 ± 0.14 | 3.49 ± 0.13 | 3.41 ± 0.19 |
| NENENFGYDIPLLDIVL [YML103C/NUP188] | 2.81 ± 0.064 | 2.92 ± 0.049 | 2.56 ± 0.056 | 2.48 ± 0.053 |
| FSFGAKANEKKESDESK [YJL041W/NSP1] | 3.38 ± 0.089 | 3.52 ± 0.078 | 3.18 ± 0.18 | 2.58 ± 0.12 |
| EIGGSDLKESMVKGLLK [ECM29] | 3.53 ± 0.16 | – | 2.76 ± 0.21 | 2.63 ± 0.23 |
| RVIVAGTLDINPDDDYG [FAS1] | 2.87 ± 0.073 | 2.85 ± 0.06 | 2.51 ± 0.058 | 2.38 ± 0.069 |
| VAADGKLVTYIVKFKQK [YLR335W/NUP2] | 2.11 ± 0.054 | 2.09 ± 0.064 | 2.02 ± 0.05 | 2.17 ± 0.059 |
| WNSLMYALQSVKLPRAF [RRP43] | 1.34 ± 0.083 | 1.2 ± 0.12 | 1.29 ± 0.051 | 1.31 ± 0.066 |
| LADYIVEVLLVNYNSDM [NUT1] | 1.35 ± 0.037 | 1.39 ± 0.14 | 1.2 ± 0.039 | 1.28 ± 0.047 |
| VKGETRIQNRVKLGLNS [PRP8] | 2.7 ± 0.15 | 2.23 ± 0.23 | 2.58 ± 0.15 | 2.08 ± 0.16 |
| AKWAPTLRTISFKGSPN [SNF2] | 3.11 ± 0.27 | 2.77 ± 0.15 | 2.51 ± 0.14 | 3.02 ± 0.16 |
